Data taken from patent US20130108549A1 (ADLYFE, published 2013).
pyrene = pyrene fluorescent label

Biological target: T1, Aβ42 oligomers (Homo sapiens (Human), UniProt P05067 672-713)
T1 construct: also called oligomers of Aβ42 (including dimers, trimers, tetramers, hexamers and 12-mers); oligomeric forms of Aβ42
Assay: pyrene excimer fluorescence, excitation 350 nm, scan 360-600 nm

T1 sequence (P05067 672-713 limits assumed): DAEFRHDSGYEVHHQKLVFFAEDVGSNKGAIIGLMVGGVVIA

B1: Peptide probe specific for Aβ (SEQ ID NO:36) labeled at each terminus with pyrene (peptide)
peptide: pyrene-KLVFFAEDVGSNKGAIIGLM-pyrene
notes: also called Aβ peptide probe; dipyrene labeled peptide probe
binding result: binds
